The assay has as its target PICK1 WT without SNAP-tag (rat (Rattus norvegicus)), Q9EP80. Description: fluorescence polarisation; competition: increasing unlabelled peptide, fixed 70% saturating PICK1 with OrG DAT C13; 50 mM Tris pH 7.4, 125 mM NaCl, 1 mM DTT, 0.01% Triton X-100; on ice; apparent Ki.

With EVRQFTLRHWLKV (modifications not checked) [unlabeled peptide of the DAT C-terminus (competitor in fluorescence polarisation)], the Ki turned out to be 2100 nM.

These data come from PMC6345565.
